Experimental data: article doi:10.1101/2024.08.21.608941

Experiments:
[1] = biological target: M. tuberculosis Eσ^B holoenzyme (M. tuberculosis) (UniProt P9WGZ1); assay: negative-stain electron microscopy
[2] = biological target: M. tuberculosis Eσ^B holoenzyme (M. tuberculosis) (UniProt P9WGZ1); assay: cryo-EM particle classification
[3] = biological target: RNAP core deltaFT;sigB Cys151/292 (DY547P1/DY647P1 labelled);RbpA (Mycobacterium …, UniProt P9WGZ1;P9WGY9;P9WGY7;P9WGY5;P9WGI5;P9WHJ5 …, internal_change|T151C;G292C|); assay: smFRET
[4] = biological target: RNAP core deltaFT;sigB Cys151/292 (DY547P1/DY647P1 labelled) (Mycobacterium …, UniProt P9WGZ1;P9WGY9;P9WGY7;P9WGY5;P9WGI5 1-347;1-810+826-1178;1-1316;1-110;1-323, internal_change|T151C;G292C); assay: smFRET

| Molecule | stoichiometry N [1] | stoichiometry N [2] | binding result [3] | binding result [4] |
| --- | --- | --- | --- | --- |
| M. tuberculosis Eσ^B holoenzyme (from UniProt P9WGZ1;P9WGY9;P9WGY7;P9WGY5;P9WGI5) (complex) | 8 | 2 | – | – |
| TGCGTATAATGTGTGGA (ssDNA) [-10 ssDNA (unlabelled)] | – | – | binds | binds |
